Measured values published in patent publication US20210246178A1 (DEUTSCHES KREBSFORSCHUNGSZENTRUM STIFTUNG DES FFENTLICHEN …, published 2021).

Molecular target: the molecule itself
Test: X-ray crystal structure, 1.53 Å

B1: MSBI1.176 Rep protein WH1 domain (residues 1-135) (other)
chain: MSDLIVKDNALMNASYNLALVEQRLILLAIIEARETGKGINANDPLTVHASSYINQFNVERHTAYQALKDACKDLFARQFSYQEKRERGRINITSRWVSQIGYMDDTATVEIIFAPAVVPLITRLEEQFTQYDIE
notes: This entry is one protomer; Two protomers (A and B) form the WH1 homodimer in the crystal, so the self-pair is written as m1 with m1; The construct of residues 1-135 was expressed in E. coli as a His-tagged fusion in modified pMal-c2X and cleaved with HRV-3C protease; also called MSBI1.176 WH1; MSBI1 WH1
binding result: binds
